According to patent US20240117018A1:

Legend:
Assay in all cases: cell-based or functional assay
[1] = molecular target: HIV-1 Env pseudovirus ZM249M.PL1 (HIV-1)
[2] = molecular target: HIV-1 Env pseudovirus PVO.4 (HIV-1)
[3] = molecular target: HIV-1 Env pseudovirus ZM247v1(Rev-) (HIV-1)
[4] = molecular target: HIV-1 Env pseudovirus ZM135M.PL10a (HIV-1)
[5] = molecular target: HIV-1 Env pseudovirus CNE52 (HIV-1)
[6] = molecular target: HIV-1 Env pseudovirus Q842.d12 (HIV-1)
[7] = molecular target: HIV-1 Env pseudovirus THRO4156.18 (HIV-1)
[8] = molecular target: HIV-1 Env pseudovirus 1394C9G1(Rev-) (HIV-1)
[9] = molecular target: HIV-1 Env pseudovirus Ce1086_B2 (HIV-1)
[10] = molecular target: HIV-1 Env pseudovirus REJO4541.67 (HIV-1)
[11] = molecular target: HIV-1 Env pseudovirus Ce704809221_1B3 (HIV-1)
[12] = molecular target: HIV-1 Env pseudovirus RHPA4259.7 (HIV-1)
[13] = molecular target: HIV-1 Env pseudovirus 3817.v2.c59 (HIV-1)
[14] = molecular target: HIV-1 Env pseudovirus 235-47 (HIV-1)
[15] = molecular target: HIV-1 Env pseudovirus R1166.c01 (HIV-1)
[16] = molecular target: HIV-1 Env pseudovirus 3016.v5.c45 (HIV-1)
[17] = molecular target: HIV-1 Env pseudovirus X1632_S2_B10 (HIV-1)
[18] = molecular target: HIV-1 Env pseudovirus 211-9 (HIV-1)
[19] = molecular target: HIV-1 Env pseudovirus X2088_c9 (HIV-1)

Substance: N49P7.2 (antibody)
- IC50 [1]: 0.073 µg/mL
- IC80 [1]: 0.256 µg/mL
- MPI [1]: 100
- IC50 [2]: 0.237 µg/mL
- IC80 [2]: 0.831 µg/mL
- MPI [2]: 100
- IC50 [3]: 0.177 µg/mL
- IC80 [3]: 2.5 µg/mL
- MPI [3]: 96
- IC50 [4]: 0.596 µg/mL
- IC80 [4]: 2.8 µg/mL
- MPI [4]: 99
- IC50 [5]: 0.03 µg/mL
- IC80 [5]: 0.088 µg/mL
- MPI [5]: 100
- IC50 [6]: 0.045 µg/mL
- IC80 [6]: 0.2 µg/mL
- MPI [6]: 100
- IC50 [7]: 6.29 µg/mL
- IC80 [7]: 33.3 µg/mL
- MPI [7]: 94
- IC50 [8]: > 50 µg/mL
- IC80 [8]: > 50 µg/mL
- MPI [8]: 20
- IC50 [9]: 0.166 µg/mL
- IC80 [9]: 1 µg/mL
- MPI [9]: 100
- IC50 [10]: 0.018 µg/mL
- IC80 [10]: 0.08 µg/mL
- MPI [10]: 100
- IC50 [11]: 0.874 µg/mL
- IC80 [11]: 3.88 µg/mL
- MPI [11]: 100
- IC50 [12]: 0.1 µg/mL
- IC80 [12]: 0.289 µg/mL
- MPI [12]: 100

Substance: N49P11 (antibody)
- IC50 [1]: 3.64 µg/mL
- IC80 [1]: 17.4 µg/mL
- MPI [1]: 100
- IC50 [2]: 0.248 µg/mL
- IC80 [2]: 1.17 µg/mL
- MPI [2]: 100
- IC50 [3]: 7.48 µg/mL
- IC80 [3]: 21.5 µg/mL
- MPI [3]: 100
- IC50 [4]: 3.97 µg/mL
- IC80 [4]: 16.6 µg/mL
- MPI [4]: 100
- IC50 [5]: 0.06 µg/mL
- IC80 [5]: 0.307 µg/mL
- MPI [5]: 100
- IC50 [6]: 0.027 µg/mL
- IC80 [6]: 0.103 µg/mL
- MPI [6]: 100
- IC50 [7]: 1.84 µg/mL
- IC80 [7]: 10.4 µg/mL
- MPI [7]: 100
- IC50 [8]: 6.13 µg/mL
- IC80 [8]: 22.3 µg/mL
- MPI [8]: 100
- IC50 [9]: 2.19 µg/mL
- IC80 [9]: 11.7 µg/mL
- MPI [9]: 100
- IC50 [10]: 10.8 µg/mL
- IC80 [10]: 27.1 µg/mL
- MPI [10]: 100
- IC50 [11]: 0.644 µg/mL
- IC80 [11]: 3.3 µg/mL
- MPI [11]: 100
- IC50 [12]: 0.202 µg/mL
- IC80 [12]: 0.956 µg/mL
- MPI [12]: 100

Substance: N49P18.1 (antibody)
- IC50 [1]: 4.16 µg/mL
- IC80 [1]: 19.8 µg/mL
- MPI [1]: 98
- IC50 [2]: 9.65 µg/mL
- IC80 [2]: 40.2 µg/mL
- MPI [2]: 84
- IC50 [3]: 10.9 µg/mL
- IC80 [3]: > 50 µg/mL
- MPI [3]: 79
- IC50 [4]: > 50 µg/mL
- IC80 [4]: > 50 µg/mL
- MPI [4]: 46
- IC50 [5]: 2.46 µg/mL
- IC80 [5]: 6.65 µg/mL
- MPI [5]: 100
- IC50 [6]: 3.04 µg/mL
- IC80 [6]: 8.13 µg/mL
- MPI [6]: 100
- IC50 [7]: > 50 µg/mL
- IC80 [7]: > 50 µg/mL
- MPI [7]: 19
- IC50 [8]: > 50 µg/mL
- IC80 [8]: > 50 µg/mL
- MPI [8]: 17
- IC50 [9]: 8.98 µg/mL
- IC80 [9]: 48 µg/mL
- MPI [9]: 92
- IC50 [10]: 4.08 µg/mL
- IC80 [10]: 30.1 µg/mL
- MPI [10]: 89
- IC50 [11]: 41.6 µg/mL
- IC80 [11]: > 50 µg/mL
- MPI [11]: 59
- IC50 [12]: 4.34 µg/mL
- IC80 [12]: 21.4 µg/mL
- MPI [12]: 98

Substance: VRC01 (antibody)
- IC50 (Titer in TZM.bl cells) [1]: 0.05 µg/mL
- IC80 (Titer in TZM.bl cells) [1]: 0.23 µg/mL
- IC50 (Titer in TZM.bl cells) [2]: 0.22 µg/mL
- IC80 (Titer in TZM.bl cells) [2]: 1.2 µg/mL
- IC50 (Titer in TZM.bl cells) [13]: > 50 µg/mL
- IC80 (Titer in TZM.bl cells) [13]: > 50 µg/mL
- IC50 (Titer in TZM.bl cells) [3]: 0.35 µg/mL
- IC80 (Titer in TZM.bl cells) [3]: 1.29 µg/mL
- IC50 (Titer in TZM.bl cells) [4]: 0.35 µg/mL
- IC80 (Titer in TZM.bl cells) [4]: 2.7 µg/mL
- IC50 (Titer in TZM.bl cells) [6]: 0.03 µg/mL
- IC80 (Titer in TZM.bl cells) [6]: 0.096 µg/mL
- IC80 (Titer in TZM.bl cells) [7]: 23 µg/mL
- IC50 (Titer in TZM.bl cells) [8]: 0.36 µg/mL
- IC80 (Titer in TZM.bl cells) [8]: 1.28 µg/mL
- IC50 (Titer in TZM.bl cells) [14]: 0.04 µg/mL
- IC80 (Titer in TZM.bl cells) [14]: 0.17 µg/mL
- IC50 (Titer in TZM.bl cells) [9]: 0.42 µg/mL
- IC80 (Titer in TZM.bl cells) [9]: 1.44 µg/mL
- IC50 (Titer in TZM.bl cells) [15]: 1.7 µg/mL
- IC80 (Titer in TZM.bl cells) [15]: 4.58 µg/mL
- IC50 (Titer in TZM.bl cells) [16]: 0.16 µg/mL
- IC80 (Titer in TZM.bl cells) [16]: 0.42 µg/mL
- IC50 (Titer in TZM.bl cells) [10]: 0.06 µg/mL
- IC80 (Titer in TZM.bl cells) [10]: 0.25 µg/mL
- IC50 (Titer in TZM.bl cells) [17]: 0.12 µg/mL
- IC80 (Titer in TZM.bl cells) [17]: 0.74 µg/mL
- IC50 (Titer in TZM.bl cells) [11]: 0.55 µg/mL
- IC80 (Titer in TZM.bl cells) [11]: 2.05 µg/mL
- IC50 (Titer in TZM.bl cells) [18]: 14.3 µg/mL
- IC80 (Titer in TZM.bl cells) [18]: > 50 µg/mL
- IC50 (Titer in TZM.bl cells) [12]: 0.06 µg/mL
- IC80 (Titer in TZM.bl cells) [12]: 0.185 µg/mL
- IC50 (Titer in TZM.bl cells) [19]: > 50 µg/mL
- IC80 (Titer in TZM.bl cells) [19]: > 50 µg/mL
